# Assay results from patent publication US20250011737A1 (ALX ONCOLOGY, published 2025).
# Experiments:
# [1] = molecular target: T1, human CD47-hFc (R & D Systems, catalog number 4670-CD) (human, UniProt Q08722 19-139); test: SPR (Biacore T100), CD47-hFc immobilized on CM4 chip, intact construct injected
# T1 construct: Bought; immobilized by amine coupling on a CM4 chip (370 RU); also called CD47 on the chip; not shown: human Fc (hFc) of a bought protein
# [2] = molecular target: T1, human CD47-hFc (R & D Systems, catalog …); test: SPR (Biacore T100), CD47-hFc immobilized on CM4 chip, intact construct injected (FIG. 5B)
# [3] = molecular target: T2, CD47 IgSF domain having amino acids 1-117 and C15S, relative to wild-type CD47 (SEQ ID NO: 35) (human, UniProt Q08722 19-135); test: inferred from SPR of cleaved constructs SEQ ID NOs: 52-54 on CD47-hFc
# T2 construct: in the assay it was tethered to, or released by cleavage from, the SIRP-α variant (it then still carries spacer and linker residues); also called IgSF domain of CD47
# [4] = molecular target: T1, human CD47-hFc (R & D Systems, catalog …); test: SPR (Biacore T100), CD47-hFc immobilized on CM4 chip, intact construct at 100 nM
# T1 sequence (Q08722 19-139 limits assumed): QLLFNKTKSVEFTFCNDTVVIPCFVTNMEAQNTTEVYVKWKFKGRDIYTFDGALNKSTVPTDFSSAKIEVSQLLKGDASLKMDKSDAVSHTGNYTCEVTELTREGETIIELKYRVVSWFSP
binder,measurement,setting,value
"SIRP-α variant construct (SEQ ID NO: 53), intact (other, uncleaved) QLLFNKTKSVEFTFSNDTVVIPCFVTNMEAQNTTEVYVKWKFKGRDIYTFDGALNKSTVPTDFSSAKIEVSQLLKGDASLKMDKSDAVSHTGNYTCEVTELTREGETIIELKYRVVSGGGGSGGGGSGGGGSGGGGSLSGRSDNHGGGGSGGGGSEEELQIIQPDKSVLVAAGETATLRCTITSLFPVGPIQWFRGAGPGRVLIYNQRQGPFPRVTTVSDTTKRNNMDFSIRIGNITPADAGTYYCIKFRKGSPDDVEFKSGAGTELSVRAKPS",binding result,[1],no binding (tested: 100 nM)
"SIRP-α variant construct (SEQ ID NO: 61), intact (other, uncleaved) QLLFNKTKSVEFTFSNDTVVIPCFVTNMEAQNTTEVYVKWKFKGRDIYTFDGALNKSTVPTDFSSAKIEVSQLLKGDASLKMDKSDAVSHTGNYTCEVTEYTREGETIIELKYRVVSGGGGSGGGGSGGGGSGGGGSLSGRSDNHGGGGSGGGGSEEELQIIQPDKSVLVAAGETATLRCTITSLFPVGPIQWFRGAGPGRVLIYNQRQGPFPRVTTVSDTTKRNNMDFSIRIGNITPADAGTYYCIKFRKGSPDDVEFKSGAGTELSVRAKPS",binding result,[2],no binding (tested: 100 nM)
"SIRP-α variant construct (SEQ ID NO: 63), intact (other, uncleaved) QLLFNKTKSVEFTFSNDTVVIPCFVTNMEAQNTTEVYVKWKFKGRDIYTFDGALNKSTVPTDFSSAKIEVSQLLKGDASLKMDKSDAVSHTGNYTCEVTELHREGETIIELKYRVVSGGGGSGGGGSGGGGSGGGGSLSGRSDNHGGGGSGGGGSEEELQIIQPDKSVLVAAGETATLRCTITSLFPVGPIQWFRGAGPGRVLIYNQRQGPFPRVTTVSDTTKRNNMDFSIRIGNITPADAGTYYCIKFRKGSPDDVEFKSGAGTELSVRAKPS",binding result,[2],no binding (tested: 100 nM)
"SIRP-α variant construct (SEQ ID NO: 60), intact (other, uncleaved) QLLFNKTKSVEFTFSNDTVVIPCFVTNMEAQNTTEVYVKWKFKGRDIYTFDGALNKSTVPTDFSSAKIEVSQLLKGDASLKMDKSDAVSHTGNYTCEVTEQTREGETIIELKYRVVSGGGGSGGGGSGGGGSGGGGSLSGRSDNHGGGGSGGGGSEEELQIIQPDKSVLVAAGETATLRCTITSLFPVGPIQWFRGAGPGRVLIYNQRQGPFPRVTTVSDTTKRNNMDFSIRIGNITPADAGTYYCIKFRKGSPDDVEFKSGAGTELSVRAKPS",binding result,[2],no binding (tested: 100 nM)
"SIRP-α variant construct (SEQ ID NO: 62), intact (other, uncleaved) QLLFNKTKSVEFTFSNDTVVIPCFVTNMEAQNTTEVYVKWKFKGRDIYTFDGALNKSTVPTDFSSAKIEVSQLLKGDASLKMDKSDAVSHTGNYTCEVTELQREGETIIELKYRVVSGGGGSGGGGSGGGGSGGGGSLSGRSDNHGGGGSGGGGSEEELQIIQPDKSVLVAAGETATLRCTITSLFPVGPIQWFRGAGPGRVLIYNQRQGPFPRVTTVSDTTKRNNMDFSIRIGNITPADAGTYYCIKFRKGSPDDVEFKSGAGTELSVRAKPS",binding result,[2],no binding (tested: 100 nM)
"SIRP-α variant (SEQ ID NO: 31) (receptor, also called SIRP-α variant alone) EEELQIIQPDKSVLVAAGETATLRCTITSLFPVGPIQWFRGAGPGRVLIYNQRQGPFPRVTTVSDTTKRNNMDFSIRIGNITPADAGTYYCIKFRKGSPDDVEFKSGAGTELSVRAKPS",binding result,[3],binds
"SIRP-α variant construct (SEQ ID NO: 52), intact (other, uncleaved) QLLFNKTKSVEFTFSNDTVVIPCFVTNMEAQNTTEVYVKWKFKGRDIYTFDGALNKSTVPTDFSSAKIEVSQLLKGDASLKMDKSDAVSHTGNYTCEVTELTREGETIIELKYRVVSGGGGSGGGGSGGGGSLSGRSDNHGGGGSGGGGSEEELQIIQPDKSVLVAAGETATLRCTITSLFPVGPIQWFRGAGPGRVLIYNQRQGPFPRVTTVSDTTKRNNMDFSIRIGNITPADAGTYYCIKFRKGSPDDVEFKSGAGTELSVRAKPS",binding result,[1],no binding (tested: 100 nM)
"SIRP-α variant construct (SEQ ID NO: 57), intact (other, uncleaved) GQLLFNKTKSVEFTFSNDTVVIPCFVTNMEAQNTTEVYVKWKFKGRDIYTFDGALNKSTVPTDFSSAKIEVSQLLKGDASLKMDKSDAVSHTGNYTCEVTELTREGETIIELKYRVVSGGGGSGGGGSGGGGSLSGRSDNHGGGGSGGGGSEEELQIIQPDKSVLVAAGETATLRCTITSLFPVGPIQWFRGAGPGRVLIYNQRQGPFPRVTTVSDTTKRNNMDFSIRIGNITPADAGTYYCIKFRKGSPDDVEFKSGAGTELSVRAKPS",binding result,[2],no binding (tested: 100 nM)
"SIRP-α variant construct (SEQ ID NO: 51), intact (other, uncleaved) GQYTSEVTELTREGETIIELKGGGGSGGGGSGGGGSLSGRSDNHGGGGSGGGGSEEELQIIQPDKSVLVAAGETATLRCTITSLFPVGPIQWFRGAGPGRVLIYNQRQGPFPRVTTVSDTTKRNNMDFSIRIGNITPADAGTYYCIKFRKGSPDDVEFKSGAGTELSVRAKPS",binding result,[4],binds
"SIRP-α variant construct (SEQ ID NO: 58), intact (other, uncleaved) GQLLFNKTKSVEFTFSNDTVVIPCFVTNMEAQNTTEVYVKWKFKGRDIYTFDGALNKSTVPTDFSSAKIEVSQLLKGDASLKMDKSDAVSHTGNYTCEVTELTREGETIIELKYRVVSGGGGSGGGGSGGGGSGGGGSLSGRSDNHGGGGSGGGGSEEELQIIQPDKSVLVAAGETATLRCTITSLFPVGPIQWFRGAGPGRVLIYNQRQGPFPRVTTVSDTTKRNNMDFSIRIGNITPADAGTYYCIKFRKGSPDDVEFKSGAGTELSVRAKPS",binding result,[2],no binding (tested: 100 nM)
"SIRP-α variant construct (SEQ ID NO: 50), intact (other, uncleaved) GQYTSEVTELTREGETIIELKGGGGSGGGGSLSGRSDNHGGGGSGGGGSEEELQIIQPDKSVLVAAGETATLRCTITSLFPVGPIQWFRGAGPGRVLIYNQRQGPFPRVTTVSDTTKRNNMDFSIRIGNITPADAGTYYCIKFRKGSPDDVEFKSGAGTELSVRAKPS",binding result,[4],binds
"SIRP-α variant construct (SEQ ID NO: 48), intact (other, uncleaved) SEVTELTREGETGGGGSGGGGSLSGRSDNHGGGGSGGGGSEEELQIIQPDKSVLVAAGETATLRCTITSLFPVGPIQWFRGAGPGRVLIYNQRQGPFPRVTTVSDTTKRNNMDFSIRIGNITPADAGTYYCIKFRKGSPDDVEFKSGAGTELSVRAKPS",binding result,[4],binds
"SIRP-α variant construct (SEQ ID NO: 49), intact (other, uncleaved) SEVTELTREGETGGGGSGGGGSGGGGSLSGRSDNHGGGGSGGGGSEEELQIIQPDKSVLVAAGETATLRCTITSLFPVGPIQWFRGAGPGRVLIYNQRQGPFPRVTTVSDTTKRNNMDFSIRIGNITPADAGTYYCIKFRKGSPDDVEFKSGAGTELSVRAKPS",binding result,[4],binds
"SIRP-α variant construct (SEQ ID NO: 59), intact (other, uncleaved) GQLLFNKTKSVEFTFSNDTVVIPCFVTNMEAQNTTEVYVKWKFKGRDIYTFDGALNKSTVPTDFSSAKIEVSQLLKGDASLKMDKSDAVSHTGNYTCEVTELTREGETIIELKYRVVSGGGGSGGGGSGGGGSGGGGSGGGGSLSGRSDNHGGGGSGGGGSEEELQIIQPDKSVLVAAGETATLRCTITSLFPVGPIQWFRGAGPGRVLIYNQRQGPFPRVTTVSDTTKRNNMDFSIRIGNITPADAGTYYCIKFRKGSPDDVEFKSGAGTELSVRAKPS",binding result,[2],no binding (tested: 100 nM)
"SIRP-α variant construct (SEQ ID NO: 54), intact (other, uncleaved) QLLFNKTKSVEFTFSNDTVVIPCFVTNMEAQNTTEVYVKWKFKGRDIYTFDGALNKSTVPTDFSSAKIEVSQLLKGDASLKMDKSDAVSHTGNYTCEVTELTREGETIIELKYRVVSGGGGSGGGGSGGGGSGGGGSGGGGSLSGRSDNHGGGGSGGGGSEEELQIIQPDKSVLVAAGETATLRCTITSLFPVGPIQWFRGAGPGRVLIYNQRQGPFPRVTTVSDTTKRNNMDFSIRIGNITPADAGTYYCIKFRKGSPDDVEFKSGAGTELSVRAKPS",binding result,[1],no binding (tested: 100 nM)
